We go through 3 molecules from article PMC3539437, “Solution Structures of PPARγ2/RXRα Complexes” (PPAR Research, 2012).

The target of assay [1] is T1, HsPPARγ LBD (203–477) (human, UniProt P37231-2 203-477).
T1 construct: Rosiglitazone was added in a 2-fold excess; also called PPAR LBD
T1 sequence (looked up): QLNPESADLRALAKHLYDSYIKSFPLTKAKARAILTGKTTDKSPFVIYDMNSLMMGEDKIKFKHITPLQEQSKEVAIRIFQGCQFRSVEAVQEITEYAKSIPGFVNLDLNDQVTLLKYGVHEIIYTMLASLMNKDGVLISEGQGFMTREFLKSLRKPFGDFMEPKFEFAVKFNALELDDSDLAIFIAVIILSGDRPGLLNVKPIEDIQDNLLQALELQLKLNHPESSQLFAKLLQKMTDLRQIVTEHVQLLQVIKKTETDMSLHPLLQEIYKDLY
In words: co-purification (affinity chromatography, gel filtration); heterodimer partners coexpressed (E. coli BL21 (DE3) or Sf9) and copurified in two steps. The note with it: partners not purified. (Size exclusion chromatography separates by hydrodynamic size, large species first.)

Assay [2] has as its target T2, HsPPARγΔNTD (135–505) (human, UniProt P37231 135-505).
T2 construct: PPARγ2 without its N-terminal domain, human, residues 135-505 (PPARγ2 has 505 residues); Rosiglitazone was added in a 2-fold excess; also called PPARγ2ΔNTD
T2 sequence (looked up): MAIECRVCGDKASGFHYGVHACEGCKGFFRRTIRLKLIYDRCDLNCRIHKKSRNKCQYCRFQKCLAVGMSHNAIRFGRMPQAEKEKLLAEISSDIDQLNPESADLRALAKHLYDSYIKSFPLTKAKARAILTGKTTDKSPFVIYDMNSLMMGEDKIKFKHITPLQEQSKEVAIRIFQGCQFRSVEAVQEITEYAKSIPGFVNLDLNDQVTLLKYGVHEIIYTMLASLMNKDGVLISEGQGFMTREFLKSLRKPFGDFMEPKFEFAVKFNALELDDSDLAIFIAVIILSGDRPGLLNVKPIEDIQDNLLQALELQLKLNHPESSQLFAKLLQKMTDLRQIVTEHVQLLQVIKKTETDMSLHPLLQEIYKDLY
The description is as above. The note with it: partners not purified.

In assay [3] the target is T3, Full-length HsPPARγ2 (1–505) (human, UniProt P37231-1 1-505).
T3 construct: PPARγ2, human, residues 1-505; Rosiglitazone was added in a 2-fold excess; also called PPARg2; full length PPARγ
T3 sequence (looked up): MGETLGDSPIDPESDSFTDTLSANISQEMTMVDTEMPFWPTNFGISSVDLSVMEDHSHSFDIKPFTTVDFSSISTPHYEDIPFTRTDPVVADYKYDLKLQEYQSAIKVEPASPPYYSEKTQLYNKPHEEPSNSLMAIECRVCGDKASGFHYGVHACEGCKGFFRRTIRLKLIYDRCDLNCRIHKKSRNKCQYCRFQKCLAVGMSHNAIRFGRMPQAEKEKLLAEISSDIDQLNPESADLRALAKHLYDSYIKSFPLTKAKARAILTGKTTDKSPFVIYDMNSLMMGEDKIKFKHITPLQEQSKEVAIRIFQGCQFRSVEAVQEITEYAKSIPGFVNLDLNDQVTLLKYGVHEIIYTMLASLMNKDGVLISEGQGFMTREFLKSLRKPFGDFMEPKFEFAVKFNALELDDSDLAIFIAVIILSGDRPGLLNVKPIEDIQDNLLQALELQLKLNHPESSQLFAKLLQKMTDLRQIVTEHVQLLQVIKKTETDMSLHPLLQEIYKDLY
The assay is described as follows: SAXS; complexes bound to Cyp4A1 PPRE DNA; Tris 20 mM pH 7.5, NaCl 75 mM, KCl 75 mM, MgSO4 4 mM, Glycerol 5%, Chaps 2 mM; ligands CD3254 and rosiglitazone. The following applies: both partners purified.

Assay [4] concerns the target T4, PPARγΔNTD/RXRαΔNTD heterodimer (human, UniProt P37231 135-505; P19793 130-462).
T4 construct: PPARγ2 without its N-terminal domain, human, residues 135-505; Retinoid X receptor alpha without its N-terminal domain, human, residues 130-462; nontagged; also called PPARγ2ΔNTD/RXRαΔNTD; PPARγΔNTD/RXRΔNTD
T4 sequence (looked up) 1: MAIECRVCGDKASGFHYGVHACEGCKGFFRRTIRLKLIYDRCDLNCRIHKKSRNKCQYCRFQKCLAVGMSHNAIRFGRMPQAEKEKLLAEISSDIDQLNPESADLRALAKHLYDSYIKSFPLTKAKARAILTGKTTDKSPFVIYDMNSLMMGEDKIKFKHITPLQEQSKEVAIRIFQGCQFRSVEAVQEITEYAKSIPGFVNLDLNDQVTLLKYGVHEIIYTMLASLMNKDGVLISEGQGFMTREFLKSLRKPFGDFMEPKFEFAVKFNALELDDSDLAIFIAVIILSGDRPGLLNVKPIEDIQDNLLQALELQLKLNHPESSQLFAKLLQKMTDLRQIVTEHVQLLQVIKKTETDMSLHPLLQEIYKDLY
T4 sequence (looked up) 2: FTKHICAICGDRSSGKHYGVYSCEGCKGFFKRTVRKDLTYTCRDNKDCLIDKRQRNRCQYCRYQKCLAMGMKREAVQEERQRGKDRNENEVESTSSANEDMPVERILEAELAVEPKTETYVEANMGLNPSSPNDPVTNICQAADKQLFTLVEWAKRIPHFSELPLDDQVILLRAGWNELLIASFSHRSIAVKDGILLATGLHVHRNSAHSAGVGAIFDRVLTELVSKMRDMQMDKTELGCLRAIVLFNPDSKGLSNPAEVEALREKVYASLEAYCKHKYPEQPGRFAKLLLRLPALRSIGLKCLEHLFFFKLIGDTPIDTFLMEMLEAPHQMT
In words: AUC; sedimentation equilibrium at 12,000 rpm, fitted with Sedphat; TIF2 RID with PPARγΔNTD/RXRαΔNTD/DNA. The note with it: both partners purified.

Assay [5] deals with T5, PPARγ/RXRα LBDs heterodimer (human, UniProt P37231-2 203-477; P19793 223-462).
T5 construct: nontagged; Ligands (CD3254 for RXR and rosiglitazone for PPAR) were added in a 2-fold excess; also called PPAR/RXR LBDs; LBD dimer
T5 sequence (looked up) 1: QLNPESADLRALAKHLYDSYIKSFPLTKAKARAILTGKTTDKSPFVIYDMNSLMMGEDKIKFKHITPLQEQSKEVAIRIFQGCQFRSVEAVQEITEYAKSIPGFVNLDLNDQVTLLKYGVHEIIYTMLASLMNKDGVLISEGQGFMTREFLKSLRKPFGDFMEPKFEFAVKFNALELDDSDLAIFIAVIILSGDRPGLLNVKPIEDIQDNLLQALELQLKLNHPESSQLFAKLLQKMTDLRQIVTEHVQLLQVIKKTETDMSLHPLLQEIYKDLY
T5 sequence (looked up) 2: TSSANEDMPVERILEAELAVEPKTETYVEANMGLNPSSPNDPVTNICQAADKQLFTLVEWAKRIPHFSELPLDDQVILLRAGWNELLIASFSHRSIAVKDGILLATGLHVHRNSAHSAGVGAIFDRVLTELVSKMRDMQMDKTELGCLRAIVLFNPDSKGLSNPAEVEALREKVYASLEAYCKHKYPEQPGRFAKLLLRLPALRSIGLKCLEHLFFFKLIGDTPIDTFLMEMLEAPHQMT
In words: native MS; ESI-MS under nondenaturing conditions, 200 mM ammonium acetate (pH 8.0 in the methods, pH 7.4 in the legend), capillary exit 80 V. The following applies: both partners purified.

The target in assay [6] is T6, Full-length PPARγ2/RXRα heterodimer (human, UniProt P37231 1-505; P19793 1-462).
T6 construct: PPARγ2, human, residues 1-505; Retinoid X receptor alpha, human, residues 1-462; also called integral PPARγ/RXRα; full-length heterodimer
T6 sequence (looked up) 1: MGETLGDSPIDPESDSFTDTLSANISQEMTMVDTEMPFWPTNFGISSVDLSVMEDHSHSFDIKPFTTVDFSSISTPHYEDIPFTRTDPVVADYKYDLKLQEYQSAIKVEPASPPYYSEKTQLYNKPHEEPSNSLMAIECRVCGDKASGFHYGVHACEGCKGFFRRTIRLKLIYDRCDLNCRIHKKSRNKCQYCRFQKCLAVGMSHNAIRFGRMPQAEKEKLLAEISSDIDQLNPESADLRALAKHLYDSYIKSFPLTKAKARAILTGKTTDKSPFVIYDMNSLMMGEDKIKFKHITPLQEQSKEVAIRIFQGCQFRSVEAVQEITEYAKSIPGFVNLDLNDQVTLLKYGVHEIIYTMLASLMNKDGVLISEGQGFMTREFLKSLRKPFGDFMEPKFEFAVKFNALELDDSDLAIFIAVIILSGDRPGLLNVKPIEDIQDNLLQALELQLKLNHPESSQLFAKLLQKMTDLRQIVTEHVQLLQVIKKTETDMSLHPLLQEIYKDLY
T6 sequence (looked up) 2: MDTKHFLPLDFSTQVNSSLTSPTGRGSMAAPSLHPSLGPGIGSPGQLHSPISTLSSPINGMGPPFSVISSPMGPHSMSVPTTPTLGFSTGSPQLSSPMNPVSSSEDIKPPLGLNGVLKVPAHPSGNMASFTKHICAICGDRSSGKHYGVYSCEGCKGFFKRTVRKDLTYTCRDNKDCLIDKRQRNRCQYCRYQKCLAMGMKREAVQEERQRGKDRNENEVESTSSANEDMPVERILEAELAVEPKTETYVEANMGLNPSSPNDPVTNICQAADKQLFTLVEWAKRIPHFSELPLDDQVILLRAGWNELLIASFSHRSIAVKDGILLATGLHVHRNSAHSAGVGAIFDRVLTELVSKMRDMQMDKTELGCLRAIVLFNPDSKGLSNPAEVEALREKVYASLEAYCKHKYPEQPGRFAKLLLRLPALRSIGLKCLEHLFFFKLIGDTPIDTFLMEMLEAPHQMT
The assay is described as follows: SAXS; complexes bound to Cyp4A1 PPRE DNA; Tris 20 mM pH 7.5, NaCl 75 mM, KCl 75 mM, MgSO4 4 mM, Glycerol 5%, Chaps 2 mM; ligands CD3254 and rosiglitazone. The note with it: both partners purified.

B1: HsRXRα LBD (223–462) (domain or fragment, human, UniProt P19793 223-462, looked up)
chain: TSSANEDMPVERILEAELAVEPKTETYVEANMGLNPSSPNDPVTNICQAADKQLFTLVEWAKRIPHFSELPLDDQVILLRAGWNELLIASFSHRSIAVKDGILLATGLHVHRNSAHSAGVGAIFDRVLTELVSKMRDMQMDKTELGCLRAIVLFNPDSKGLSNPAEVEALREKVYASLEAYCKHKYPEQPGRFAKLLLRLPALRSIGLKCLEHLFFFKLIGDTPIDTFLMEMLEAPHQMT
notes: nontagged (pACYC plasmid); CD3254 was added in a 2-fold excess; also called RXR LBD
Turning to B1, the binding result in assay [1] was “binds”.

B2: HsRXRαΔNTD (130–462) (domain or fragment, human, UniProt P19793 130-462, looked up)
chain: FTKHICAICGDRSSGKHYGVYSCEGCKGFFKRTVRKDLTYTCRDNKDCLIDKRQRNRCQYCRYQKCLAMGMKREAVQEERQRGKDRNENEVESTSSANEDMPVERILEAELAVEPKTETYVEANMGLNPSSPNDPVTNICQAADKQLFTLVEWAKRIPHFSELPLDDQVILLRAGWNELLIASFSHRSIAVKDGILLATGLHVHRNSAHSAGVGAIFDRVLTELVSKMRDMQMDKTELGCLRAIVLFNPDSKGLSNPAEVEALREKVYASLEAYCKHKYPEQPGRFAKLLLRLPALRSIGLKCLEHLFFFKLIGDTPIDTFLMEMLEAPHQMT
notes: Retinoid X receptor alpha without its N-terminal domain, human, residues 130-462; nontagged (pACYC plasmid); CD3254 was added in a 2-fold excess; also called RXRΔNTD
In the case of B2, the binding result in assay [2] and in assay [3] was “binds” in each case.

B3: HsTIF-2 (632–772), TIF2 receptor interacting domain (RID) (domain or fragment, human, UniProt Q15596 632-772, looked up)
chain: LHDSKGQTKLLQLLTTKSDQMEPSPLASSLSDTNKDSTGSLPGSGSTHGTSLKEKHKILHRLLQDSSSPVDLAKLTAEATGKDLSQESSSTAPGSEVTIKQEPVSPKKKENALLRYLLDKDDTKDIGLPEITPKLERLDSK
notes: TIF2 (NCoA2, p160 member), human, residues 632-772: 15 kDa fragment with the three LXXLL motifs; also called TIF2 RID; TIF-2 RID
In the case of B3, the “stoichiometry N” value in assay [4] was 1 TIF2 RID per heterodimer; in assay [5], 1 TIF2 RID per heterodimer; in assay [6], 1 coactivator per receptor dimer.

In general, stoichiometry N refers to the number of molecules, sites or subunits per partner or assembly.
